Columns and labels:
[1] = biological target: human adenovirus type 11 fiber knob (human adenovirus type 11) (UniProt P35774); assay: crystal structure; complex formed from purified proteins at 4°C for 2 hrs with a 1.2 molar excess of CD46-4D, separated from unbound CD46-4D by size exclusion chromatography (20 mM HEPES, 150 mM NaCl, pH 7.4); crystals at 4°C in 20% polyethylene glycol 1000, 0.2 M ammonium phosphate pH 8.0; space group P6_(3), 2.84 Å
[2] = biological target: the molecule itself; assay: as above

CD46-4D, extracellular segment of human CD46 (membrane cofactor protein) comprising all four SCR domains (domain or fragment)
stoichiometry N (CD46-4D molecules per knob trimer) [1]: 3

B1: human adenovirus type 11 fiber knob (domain or fragment)
chain: LTFNSNNICIDDNINTLWTGVNPTEANCQIMNSSESNDCKLILTLVKTGALVTAFVYVIGVSNNFNMLTTHRNINFTAELFFDSTGNLLTRLSSLKTPLNHKSGQNMATGAITNAKGFMPSTTAYPFNDNSREKENYIYGTCYYTASDRTAFPIDISVMLNRRAINDETSYCIRITWSWNTGDAPEVQTSATTLVTSPFTFYYIREDD
notes: fiber protein of human adenovirus type 11, knob domain, amino acids 118-325; also called Ad11 knob; Ad11 fiber knob
stoichiometry N [2]: 3 protomers
